Test results: US20240084003A1 (SIMCERE ZAIMING PHARMACEUTICAL, published 2024)
Where two headings read alike, the source gives them in different places.

Columns and labels:
[1] = target: T1, monkey CD22 protein (ACROBiosystems, catalog number SI2-R52Ha) (monkey, UniProt F6W485 20-688); experiment: ELISA, coated monkey CD22 protein, antibody 100 nM
T1 construct: commercial protein; also called monkey CD22-ECD; monkey CD22-ECD-His
T1 sequence: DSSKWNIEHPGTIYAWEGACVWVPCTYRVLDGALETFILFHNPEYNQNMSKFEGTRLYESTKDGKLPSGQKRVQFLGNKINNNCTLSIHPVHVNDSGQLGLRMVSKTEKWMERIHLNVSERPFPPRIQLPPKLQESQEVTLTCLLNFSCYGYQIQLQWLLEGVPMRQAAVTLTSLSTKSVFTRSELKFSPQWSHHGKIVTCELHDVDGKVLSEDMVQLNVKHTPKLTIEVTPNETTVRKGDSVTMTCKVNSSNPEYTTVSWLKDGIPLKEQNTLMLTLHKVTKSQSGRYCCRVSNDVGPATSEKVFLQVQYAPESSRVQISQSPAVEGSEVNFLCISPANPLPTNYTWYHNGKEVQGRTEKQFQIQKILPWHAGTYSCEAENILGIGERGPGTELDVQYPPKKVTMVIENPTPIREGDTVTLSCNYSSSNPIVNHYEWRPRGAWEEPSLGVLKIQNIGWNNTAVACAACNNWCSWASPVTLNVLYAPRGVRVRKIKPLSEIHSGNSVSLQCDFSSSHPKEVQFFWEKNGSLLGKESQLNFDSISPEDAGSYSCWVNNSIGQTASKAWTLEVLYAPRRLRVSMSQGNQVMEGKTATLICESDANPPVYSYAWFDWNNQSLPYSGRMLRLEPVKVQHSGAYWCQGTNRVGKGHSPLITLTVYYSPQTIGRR
Method: (§1) In order to detect the binding activity of CD22 human-murine chimeric antibodies to CD22 protein, the purified human CD22-ECD-His protein obtained in Example 2 was diluted with PBS to a final concentration of 2 μg/mL, and then added to 96-well ELISA plate at 100 μl/well. The plate was sealed with plastic film and incubated overnight at 4° C., the plate was washed 2 times with PBS the next day, and then a blocking solution [PBS+2% (w/w) BSA] was added for blocking at room temperature for 2 hours. […] After incubation at 37° C. for 2 hours, the plate was washed 3 times with PBS. HRP (horseradish peroxidase)-labeled secondary antibody (purchased from Sigma, catalog number: A0170) was added, and incubated at 37° C. for 2 hours, and the plate was washed 5 times with PBS. TMB substrate was added at 50 μl/well, and incubated at room temperature for 30 minutes, then a stop solution (1.0 N HCl) was added at 50 μl/well.
(§2) In order to detect the species cross-binding activity of the chimeric antibodies, an ELISA plate was coated with commercial murine CD22 protein (ACROBiosystems, catalog number: SI2-M52Ha) and monkey CD22 protein (ACROBiosystems, catalog number: SI2-R52Ha), respectively, and the ELISA detection was performed according to the method in Example 5.1.

[2] = target: T2, monkey CD22 on HEK293T-monkey CD22 cells (monkey); experiment: FACS, HEK293T-monkey CD22 cells
T2 construct: full-length entry expressed on stably transfected HEK293T cells
T2 chain: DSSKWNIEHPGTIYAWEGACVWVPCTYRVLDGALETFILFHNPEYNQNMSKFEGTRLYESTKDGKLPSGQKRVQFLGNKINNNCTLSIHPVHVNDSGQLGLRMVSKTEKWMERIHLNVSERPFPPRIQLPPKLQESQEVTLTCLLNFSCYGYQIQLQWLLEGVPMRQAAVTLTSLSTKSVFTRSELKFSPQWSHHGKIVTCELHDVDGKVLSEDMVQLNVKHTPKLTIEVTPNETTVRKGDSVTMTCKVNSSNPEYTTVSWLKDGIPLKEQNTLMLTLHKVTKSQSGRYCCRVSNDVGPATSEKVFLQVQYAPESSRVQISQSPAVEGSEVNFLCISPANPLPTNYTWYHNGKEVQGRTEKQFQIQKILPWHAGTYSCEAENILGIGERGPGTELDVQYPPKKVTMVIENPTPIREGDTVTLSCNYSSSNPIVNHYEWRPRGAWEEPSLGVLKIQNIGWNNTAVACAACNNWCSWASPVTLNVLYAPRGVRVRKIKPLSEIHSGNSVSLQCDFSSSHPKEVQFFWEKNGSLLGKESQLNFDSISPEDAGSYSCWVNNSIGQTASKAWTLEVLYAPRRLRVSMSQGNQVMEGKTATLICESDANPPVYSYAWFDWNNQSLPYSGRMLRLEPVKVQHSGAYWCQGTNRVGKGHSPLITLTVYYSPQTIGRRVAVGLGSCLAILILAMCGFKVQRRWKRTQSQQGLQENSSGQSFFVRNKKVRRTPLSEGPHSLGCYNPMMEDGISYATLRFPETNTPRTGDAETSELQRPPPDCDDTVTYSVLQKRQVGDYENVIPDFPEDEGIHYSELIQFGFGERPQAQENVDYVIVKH
Method: (§3) For suspension cell Raji, the medium supernatant was directly centrifuged and discarded, and the cell pellet was washed 2 times with PBS. After counting the cells in the previous step, the cell pellet was resuspended with [PBS+2% (w/w) BSA] blocking solution to 2×10⁶ cells/ml, and added to a 96-well FACS reaction plate at 50 μl/well, and then the chimeric antibody test sample was added at 50 μl/well, and incubated on ice for 2 hours. The mixture was centrifuged and washed 3 times with PBS buffer, Alexa Flour 488-labeled secondary antibody (purchased from Invitrogen, catalog number: A-11013) was added at 50 μl/well, and incubated on ice for 1 hour. The obtained mixture was centrifuged and washed 5 times with PBS, and FACS (FACS Canto™, purchased from BD Company) was used for detection and result analysis. Data analysis was performed by software (CellQuest) to obtain the mean fluorescence density (MFI)of the cells. And then software (GraphPad Prism8) was used for analysis, data fitting, and EC50 value calculation. […] The same method was used to detect the binding of the chimeric antibodies to endogenous CD22-negative cell MoLT4 cells (purchased from ATCC, CRL-1582) and CHO-K1 cells.
(§4) HEK293T-monkey CD22 cells were subjected to FACS detection and data analysis according to the method in Example 5.2.

[3] = target: T1, monkey CD22 protein (ACROBiosystems, …); experiment: ELISA, coated monkey CD22 protein, antibody 0.1 nM
Method: as §1, §2

[4] = target: T2, monkey CD22 on HEK293T-monkey CD22 cells; experiment: FACS, HEK293T-monkey CD22 cells
Method: as §3, §4

[5] = target: T1, monkey CD22 protein (ACROBiosystems, …); experiment: ELISA, coated monkey CD22 protein, antibody 0.00001 nM
Method: as §1, §2

[6] = target: T1, monkey CD22 protein (ACROBiosystems, …); experiment: ELISA, coated monkey CD22 protein, antibody 0.001 nM
Method: as §1, §2

[7] = target: T1, monkey CD22 protein (ACROBiosystems, …); experiment: ELISA, coated monkey CD22 protein, antibody 0.0001 nM
Method: as §1, §2

[8] = target: T1, monkey CD22 protein (ACROBiosystems, …); experiment: ELISA, coated monkey CD22 protein, antibody 10 nM
Method: as §1, §2

[9] = target: T1, monkey CD22 protein (ACROBiosystems, …); experiment: ELISA, coated monkey CD22 protein, antibody 0.01 nM
Method: as §1, §2

[10] = target: T2, monkey CD22 on HEK293T-monkey CD22 cells; experiment: FACS, HEK293T-monkey CD22 cells, EC50 column
Method: as §3, §4

B1: m971-hIgG1 (antibody, V domains shown)
VH: QVQLQQSGPGLVKPSQTLSLTCAISGDSVSSNSAAWNWIRQSPSRGLEWLGRTYYRSKWYNDYAVSVKSRITINPDTSKNQFSLQLNSVTPEDTAVYYCAREVTGDLEDAFDIWGQGTMVTVSS
VL: DIQMTQSPSSLSASVGDRVTITCRASQTIWSYLNWYQQRPGKAPNLLIYAASSLQSGVPSRFSGRGSGTDFTLTISSLQAEDFATYYCQQSYSIPQTFGQGTKLEIKR
notes: control anti-CD22 antibody; variable regions from US 8,591,889 on human IgG1 constant regions
OD450 [1]: 0.12 OD450
Maximum mean fluorescence intensity [2]: 49 MFI
OD450 [3]: 0.07 OD450
Maximum mean fluorescence intensity [4]: 104 MFI
OD450 [5]: 0.07 OD450
OD450 [6]: 0.06 OD450
OD450 [7]: 0.07 OD450
OD450 [8]: 0.09 OD450
OD450 [9]: 0.07 OD450
binding result [10]: no binding
